Here are results for one sequence from article PMC2187453.

A word on the Kd: it is a measure of binding affinity in units of concentration. Higher therefore signals a looser complex.

This test addresses TCGF receptor on B6.1 cells (mouse CTL line B6.1.SF.1) (mouse (endogenous in the B6.1 CTL line)). In words: radioligand binding.

T cell growth factor (TCGF), human, biosynthetically radiolabeled (3H-TCGF), sequence (P60568 21-153): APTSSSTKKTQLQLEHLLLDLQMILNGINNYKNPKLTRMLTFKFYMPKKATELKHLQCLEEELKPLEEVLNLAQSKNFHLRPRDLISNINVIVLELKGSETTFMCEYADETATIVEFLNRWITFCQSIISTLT

For “T cell growth factor (TCGF), human, biosynthetically radiolabeled (3H-TCGF) (from UniProt P60568 21-153) (ligand)”, the equilibrium dissociation constant (Kd) is 0.022 nM.
